The source of these data is patent US20150093386A1.

What all share (experiment): cell-based or functional assay
Assay [1] addresses EGFR overexpressed on U87 MG EGFR cells (UniProt P00533).
The target in assay [2] is EGFRvIII (EGFR with deletion of exons 2-7) on U87 MG-EGFRvIII cells (human) (UniProt P00533).
For assay [3], the target named is endogenous EGFR at low level on U87 MG cells (human) (UniProt P00533).

With humanized monoclonal antibody ch806, in assay [1], the EC50 values of cytotoxicity on MG-EGFR cells stood at 6.48 µM; the cytotoxicity % at 0.0002 nM, U87 MG EGFR cells with PBMC was determined as 1.89%; the cytotoxicity % at 0.002 nM, U87 MG EGFR cells with PBMC was found to be 0.61%; the cytotoxicity % at 0.02 nM, U87 MG EGFR cells with PBMC came to 1.31%. In assay [1], this substance registered a cytotoxicity % at 0.2 nM, U87 MG EGFR cells with PBMC of 0.37%; a cytotoxicity % at 2 nM, U87 MG EGFR cells with PBMC of 0.49%; a cytotoxicity % at 20 nM, U87 MG EGFR cells with PBMC of 4.92%. Besides, in assay [2], the EC50 values of cytotoxicity on U87 MG-EGFRvIII cells is 0.0408 µM; the cytotoxicity % at 0.0002 nM, U87 MG EGFRvIII cells with PBMC worked out at 0.41%; the cytotoxicity % at 0.002 nM, U87 MG EGFRvIII cells with PBMC was determined as 0.62%; the cytotoxicity % at 0.02 nM, U87 MG EGFRvIII cells with PBMC was found to be 0.76%. In assay [2], this substance had a cytotoxicity % at 0.2 nM, U87 MG EGFRvIII cells with PBMC of 15.6%; a cytotoxicity % at 2 nM, U87 MG EGFRvIII cells with PBMC of 22.3%; a cytotoxicity % at 20 nM, U87 MG EGFRvIII cells with PBMC of 36.3%. For the same substance, in assay [3], the cytotoxicity % at 0.0002 nM, U87 MG cells with PBMC stood at 0.96%; the cytotoxicity % at 0.002 nM, U87 MG cells with PBMC is 0.71%; the cytotoxicity % at 0.02 nM, U87 MG cells with PBMC was determined as 0.71%; the cytotoxicity % at 0.2 nM, U87 MG cells with PBMC turned out to be 0.07%. In addition, in assay [3], the cytotoxicity % at 2 nM, U87 MG cells with PBMC was found to be 0.28% and the cytotoxicity % at 20 nM, U87 MG cells with PBMC worked out at 4.18%.
